Assay results reported in patent publication US20230129812A1, “COMPOSITIONS AND METHODS FOR TREATING PULMONARY HYPERTENSION” (Acceleron Pharma Inc., priority 2020, published 2023).

Legend:
[1] = In vivo activity of ActRIIA variant with substitution at X17; settings: substitution of A for K at X17
GDF8 [2] = target: T1, GDF8 (Homo sapiens, UniProt O14793); test: Biacore assay, ActRIIB-Fc captured with anti-hFc antibody, ligand injected (Example 8); format: binding; settings: GDF8; Table 10
T1 sequence (O14793 267-375): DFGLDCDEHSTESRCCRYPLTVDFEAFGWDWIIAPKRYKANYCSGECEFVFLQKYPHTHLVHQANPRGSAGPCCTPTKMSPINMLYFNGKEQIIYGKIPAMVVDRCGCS
Protocol: (§1) Binding of certain ActRIIB-Fc proteins and ActRIIB variant Fc fusion polypeptides to ligands was tested in a Biacore™ assay.
(§2) The ActRIIB-Fc variants or wild-type protein were captured onto the system using an anti-hFc antibody. Ligands were injected and flowed over the captured receptor proteins.

GDF11 [3] = target: T2, GDF11 (Homo sapiens, UniProt O95390); test: as above; format: binding; settings: GDF11; Table 10
T2 sequence (O95390 299-407): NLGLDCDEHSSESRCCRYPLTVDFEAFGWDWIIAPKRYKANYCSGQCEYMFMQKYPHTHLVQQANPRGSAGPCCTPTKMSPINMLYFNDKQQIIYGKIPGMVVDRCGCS
Protocol: as §1, §2

activin A [4] = target: T3, activin A (Homo sapiens, UniProt P08476); test: as above; format: binding; settings: Activin A; Table 10
T3 sequence (P08476 311-426): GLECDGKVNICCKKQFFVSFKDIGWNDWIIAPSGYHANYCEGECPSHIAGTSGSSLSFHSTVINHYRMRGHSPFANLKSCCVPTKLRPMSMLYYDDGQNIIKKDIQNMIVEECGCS
Protocol: as §1, §2

GDF8 [5] = target: T1, GDF8; test: A-204 reporter gene assay, pGL3(CAGA)12 luciferase; format: cell-based
From the text: (§3) An A-204 reporter gene assay was used to evaluate the effects of ActRIIB-Fc proteins and ActRIIB variant Fc fusion polypeptides on signaling by GDF-11 and activin A. Cell line: human rhabdomyosarcoma (derived from muscle). Reporter vector: pGL3(CAGA)12 (described in Dennler et al, 1998, EMBO 17: 3091-3100). The CAGA12 motif is present in TGF-beta responsive genes (e.g., PAI-1 gene), so this vector is of general use for factors signaling through SMADs.
(§4) Day 1: Split A-204 cells into 48-well plate.
(§5) Day 2: A-204 cells transfected with 10 ug pGL3(CAGA)12 or pGL3(CAGA)12(10 ug)+pRLCMV (1 pg) and Fugene.
(§6) Day 3: Add factors (diluted into medium+0.1% BSA). Inhibitors need to be preincubated with factors for 1 hr before adding to cells. Six hrs later, cells were rinsed with PBS and lysed.
(§7) This is followed by a luciferase assay.
As described below, ActRIIB variants were also tested in this assay.
(§8) In addition, an A-204 Reporter Gene Assay was used to evaluate the effects of ALK4-Fc:ActRIIB-Fc heterodimer and ActRIIB-Fc:ActRIIB-Fc homodimer on signaling by activin A, activin B, GDF11, GDF8, BMP10, and BMP9. Cell line: Human Rhabdomyosarcoma (derived from muscle). Reporter vector: pGL3(CAGA)12 (as described in Dennler et al, 1998, EMBO 17: 3091-3100). The CAGA12 motif is present in TGFβ responsive genes (PAI-1 gene), so this vector is of general use for factors signaling through Smads. An exemplary A-204 Reporter Gene Assay is outlined below. • Day 1: Split A-204 cells into 48-well plate. • Day 2: A-204 cells transfected with 10 ug pGL3(CAGA)12 or pGL3(CAGA)12(10 ug)+pRLCMV (1 ug) and Fugene. • Day 3: Add factors (diluted into medium+0.1% BSA). Inhibitors need to be pre-incubated with Factors for about one hr before adding to cells. About six hrs later, cells are rinsed with PBS and then lysed.
(§9) Following the above steps, a Luciferase assay was performed.

activin A [6] = target: T3, activin A; test: A-204 reporter gene assay, pGL3(CAGA)12 luciferase; format: cell-based; settings: for inhibition of activin A signaling: A-204 reporter gene assay
From the text: as §3, §4, §5, §6, §7
(§10) Activity of ActRIIB-Fc proteins and ActRIIB variant Fc fusion polypeptides was tested in a cell-based assay as described above. Some variants were tested in different C-terminal truncation constructs. As discussed above, truncations of five or fifteen amino acids caused reduction in activity. […]

GDF11 [7] = target: T2, GDF11; test: A-204 reporter gene assay, pGL3(CAGA)12 luciferase; format: cell-based; settings: for inhibition of GDF11 signaling: A-204 reporter gene assay
From the text: as §3, §4, §5, §6, §7, §10

activin B [8] = target: T4, activin B (Homo sapiens, UniProt P09529); test: Biacore ligand affinity of ActRIIB-hFc forms, steady-state affinity fit; format: binding; settings: Table 12; Kd by steady-state affinity fit; read-out: Activin B (Kd e−11)
T4 sequence (P09529 293-407): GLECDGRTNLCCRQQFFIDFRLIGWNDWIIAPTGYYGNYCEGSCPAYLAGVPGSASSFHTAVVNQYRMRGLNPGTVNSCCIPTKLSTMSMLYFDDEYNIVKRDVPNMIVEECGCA
Protocol: (§11) Affinities of several ligands for ActRIIB(25-131)-hFc and its full-length counterpart ActRIIB(20-134)-hFc were evaluated in vitro with a Biacore™ instrument, and the results are summarized in Table 8 below. Kd values were obtained by steady-state affinity fit due to very rapid association and dissociation of the complex, which prevented accurate determination of kon and koff. ActRIIB(25-131)-hFc bound, for example, activin A, activin B, and GDF11 with high affinity.
(§12) The affinity of ActRIIB variants and other ActRIIB-hFc proteins for several ligands was evaluated in vitro with a Biacore™ instrument. Kd values were obtained by steady-state affinity fit due to the very rapid association and dissociation of the complex, which prevented accurate determination of kon and koff.

GDF11 [9] = target: T2, GDF11; test: as above; format: binding; settings: Table 12; Kd by steady-state affinity fit; read-out: GDF11 (Kd e−11)
Protocol: as §11, §12

activin A [10] = target: T3, activin A; test: as above; format: binding; settings: Table 12; Kd by steady-state affinity fit; read-out: Activin A (Kd e−11)
Protocol: as §11, §12

activin B [11] = target: T4, activin B; test: A-204 Reporter Gene Assay (Example 13); format: cell-based
From the text: as §8, §9

BMP10 = target: T5, BMP10 (Homo sapiens, UniProt O95393); test: Biacore ligand binding profile, ALK4-Fc:ActRIIB-Fc heterodimer vs homodimers, anti-Fc capture (Example 13, Table 13); settings: ligand BMP10, Table 13
T5 sequence (O95393 317-424): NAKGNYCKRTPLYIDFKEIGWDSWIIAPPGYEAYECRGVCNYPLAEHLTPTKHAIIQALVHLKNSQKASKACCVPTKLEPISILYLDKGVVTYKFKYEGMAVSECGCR
Protocol: (§13) A Biacore™-based binding assay was used to compare ligand binding selectivity of the ALK4-Fc:ActRIIB-Fc heterodimeric complex described above with that of ActRIIB-Fc and ALK4-Fc homodimer complexes. The ALK4-Fc:ActRIeB-Fc heterodimer, […], and ALK4-Fc homodimer were independently captured onto the system using an anti-Fc antibody. Ligands were injected and allowed to flow over the captured receptor protein. Results are summarized in Table 13 below, in which ligand off-rates (kd) most indicative of effective polypeptides are denoted in bold.

GDF8 [12] = target: T1, GDF8; test: as above
Protocol: as §13

BMP6 = target: T6, BMP6 (Homo sapiens, UniProt P22004); test: as above
T6 sequence (P22004 375-513): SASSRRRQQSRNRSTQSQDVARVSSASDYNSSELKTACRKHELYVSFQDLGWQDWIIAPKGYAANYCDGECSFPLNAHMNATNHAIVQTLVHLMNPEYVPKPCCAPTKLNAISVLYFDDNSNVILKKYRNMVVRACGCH
Protocol: as §13

GDF3 = target: T7, GDF3 (Homo sapiens, UniProt Q9NR23); test: as above; settings: ligand GDF3, Table 13
T7 sequence (Q9NR23 251-364): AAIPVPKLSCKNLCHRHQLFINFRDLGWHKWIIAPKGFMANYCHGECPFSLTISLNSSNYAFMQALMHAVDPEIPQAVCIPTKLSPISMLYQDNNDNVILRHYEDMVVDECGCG
Protocol: as §13

activin B [13] = target: T4, activin B; test: as above; settings: ligand Activin B, Table 13
Protocol: as §13

GDF11 [14] = target: T2, GDF11; test: as above
Protocol: as §13

activin A [15] = target: T3, activin A; test: as above
Protocol: as §13

BMP9 = target: T8, BMP9 (Homo sapiens, UniProt Q9UK05); test: as above
T8 sequence (Q9UK05 320-429): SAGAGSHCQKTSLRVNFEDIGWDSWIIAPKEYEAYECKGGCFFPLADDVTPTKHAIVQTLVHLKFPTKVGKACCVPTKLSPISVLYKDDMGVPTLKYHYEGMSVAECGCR
Protocol: as §13

[16] = Table 9, cell-based A-204 assay

B1: SEQ ID NO: 283: ActRIIA variant with alanine (A) substituted for lysine (K) at X17 (protein)
chain: GAILGRSETQECLFYNANWELERTNQTGVERCEGEKDKRLHCYATWRNISGSIEIVAKGCWLDDFNCYDRTDCVETEENPQVYFCCCEGNMCNEKFSYFPEMEVTQPTS
In the case of B1, the activity in vivo [1] is reported as “reduced activity in vivo”.

B2: ActRIIB(20-134)-hFc: extracellular domain of human ActRIIB (residues 20-134, R64) fused to a human Fc domain with a minimal linker (protein)
chain: GRGEAETRECIYYNANWELERTNQSGLERCEGEQDKRLHCYASWRNSSGTIELVKKGCWLDDFNCYDRQECVATEENPQVYFCCCEGNFCNERFTHLPEAGGPEVTYEPPPTAPTGGGTHTCPPCPAPELLGGPSVFLFPPKPKDTLMISRTPEVTCVVVDVSHEDPEVKFNWYVDGVEVHNAKTKPREEQYNSTYRVVSVLTVLHQDWLNGKEYKCKVSNKALPVPIEKTISKAKGQPREPQVYTLPPSREEMTKNQVSLTCLVKGFYPSDIAVEWESNGQPENNYKTTPPVLDSDGSFFLYSKLTVDKSRWQQGNVFSCSVMHEALHNHYTQKSLSLSPGK
With B2 the “Koff” value (GDF8 [2]) was 3.45e-05 s⁻¹, the “Koff” value (GDF11 [3]) was 0.000113 s⁻¹ and the “Koff” value (activin A [4]) was 0.000159 s⁻¹. For the same molecule, the “inhibition of GDF8 signaling” value (GDF8 [5]) was “potent inhibitor”, the “inhibition of activin A signaling” value (activin A [6]) was “potent inhibitor” and the “Activin Inhibition Activity” value (activin A [6]; [16]) was “+++ (Good (wild-type) activity (roughly 1 × 10^−8 KI))”. For the same molecule, the “inhibition of GDF11 signaling” value (GDF11 [7]) was “potent inhibitor”, the “GDF11 Inhibition Activity” value (GDF11 [7]; [16]) was “+++ (Good (wild-type) activity (roughly 1 × 10^−8 KI))” and the Kd (activin B [8]) was 0.012 nM. The Kd (GDF11 [9]) was 0.036 nM and the Kd (activin A [10]) was 0.016 nM.

B3: ActRIIB-Fc homodimer: ActRIIB-Fc homodimer complex used as comparator in Example 13 (protein)
chain: GRGEAETRECIYYNANWELERTNQSGLERCEGEQDKRLHCYASWRNSSGTIELVKKGCWLDDFNCYDRQECVATEENPQVYFCCCEGNFCNERFTHLPEAGGPEVTYEPPPTAPTGGGTHTCPPCPAPELLGGPSVFLFPPKPKDTLMISRTPEVTCVVVDVSHEDPEVKFNWYVDGVEVHNAKTKPREEQYNSTYRVVSVLTVLHQDWLNGKEYKCKVSNKALPVPIEKTISKAKGQPREPQVYTLPPSREEMTKNQVSLTCLVKGFYPSDIAVEWESNGQPENNYKTTPPVLDSDGSFFLYSKLTVDKSRWQQGNVFSCSVMHEALHNHYTQKSLSLSPGK
With B3 the “inhibition of GDF8 signaling” value (GDF8 [5]) was “potent inhibitors”, the “inhibition of activin A signaling” value (activin A [6]) was “potent inhibitors” and the “inhibition of GDF11 signaling” value (GDF11 [7]) was “potent inhibitors”. The “inhibition of activin B signaling” value (activin B [11]) was “potent inhibitors”, the ka (BMP10) was 2.3 × 10^7 1/MS and the kd (BMP10) was 0.00026 s⁻¹. For the same molecule, the “GDF8 binding” value (GDF8 [12]; Example 13) was “strong binding”, the ka (GDF8 [12]; ligand GDF8, Table 13) was 8.3 × 10^5 1/MS and the kd (GDF8 [12]; ligand GDF8, Table 13) was 0.00023 s⁻¹. The “BMP6 binding” value (BMP6; Example 13) was “intermediate-level binding”, the ka (BMP6; ligand BMP6, Table 13) was 3.2 × 10^7 1/MS and the kd (BMP6; ligand BMP6, Table 13) was 0.0068 s⁻¹. For the same molecule, the ka (GDF3) was 1.4 × 10^6 1/MS, the kd (GDF3) was 0.0022 s⁻¹ and the ka (activin B [13]) was 5.1 × 10^6 1/MS. The kd (activin B [13]) was 0.0001 s⁻¹, the “GDF11 binding” value (GDF11 [14]; Example 13) was “strong binding” and the ka (GDF11 [14]; ligand GDF11, Table 13) was 5.0 × 10^7 1/MS. The kd (GDF11 [14]; ligand GDF11, Table 13) was 0.00011 s⁻¹, the “activin A binding” value (activin A [15]; Example 13) was “strong binding” and the ka (activin A [15]; ligand Activin A, Table 13) was 1.2 × 10^7 1/MS. For the same molecule, the kd (activin A [15]; ligand Activin A, Table 13) was 0.00023 s⁻¹, the “BMP9 binding” value (BMP9; Example 13) was “binds strongly” and the ka (BMP9; ligand BMP9, Table 13) was 1.4 × 10^7 1/MS. It also gave a kd (BMP9; ligand BMP9, Table 13) of 0.0011 s⁻¹.
